Among the data in a protein production outcome set (Wang et al. 2014) are protein production values, retold here.
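Further: failed if final PepcDB status was selected cloned or expressed and not failed if soluble or beyond.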

This series is described as follows: label from the status in PepcDB records.
Regarding “MVQAQTRDQIVAAADELFYRQGFAQTSFVDISAAVGISRGNFYYHFKTKDEILAEVIRLRLARTAQMLADWQGTGDSPRARIASFIDLMIMNRAKITRYGCPVGSLCTELSKLDHAAQGQANGLFTLFRDWLQRQFAEAGCTTEAPALAMHLLARSQGAATLAQSFHDEGFLRSEVADMHRWLDNTLPMTT”, the protein production result is listed as “not failed”. To “MPQAKKRTSTKRKGNKKTNKKKQNETPLRYIFSIIVVILIILGAFQLGIIGRMIDSFFNYLFGMSRYLTYILVLIATIFITYSKQIPRTRRSIGAIVLQLALLFIAQLYFHFSHNITSQREPVLSFVYKAYEQTHFPNFGGGLIGFYLLKLFIPLISIVGVIIITILLLASSFILLLNLRHRDVTKSLFDNLKSSSNHASESIKQKREQNKIKKEEKAQLKEAKIERKKQKKSRQNNNVIKDVSDFPEISQSDDIPIYGHNEQEDKRPNTANQRQKRVLDNEQFQQSLPSTKNQSINNNQPSTTAENNQQQSQAEGSISEAGEEANIEYTVPPLSLLKQPTKQKTTSKAEVQRKGQVLESTLKNFGVNAKVTQIKIGPAVTQYEIQPAQGVKVSKIVNLHNDIALALAAKDVRIEAPIPGRSAVGIEVPNDKISLVTLKEVLEDKFPSKYKLEVGIGRDISGDPISIQLNEMPHLLVAGSTGSGKSVCINGIITSILLNTKPHEVKLMLIDPKMVELNVYNGIPHLLIPVVTNPHKASQALEKIVSEMERRYDLFQHSSTRNIEGYNQYIRKQNEELDEKQPELPYIVVIVDELADLMMVAGKEVENAIQRITQMARAAGIHLIVATQRPSVDVITGIIKNNIPSRIAFAVSSQTDSRTIIGAGGAEKLLGKGDMLYVGNGESTTTRIQGAFLSDQEVQDVVNYVVEQQKANYVKEMEPDAPVDKSEMKSEDALYDEAYLFVIEKQKASTSLLQRQFRIGYNRASRLMDDLERNQVIGPQKGSKPRQILVDLENDEV” belongs “failed”; to “MIDRNIVNLRLFRIYSKRYLKFDFVAAIVVFLVAIPLCLGIALASGAPLFSGILSGIIGGIVVGIFSGSQVSVSGPAAGMAAVVLAAISQLGDFNTFLLALTIAGLLQMIIGALRAGFVADYVPSNVVQGLLCSIGILLIIKQLPLAFTLSSDFDELKTHLLETTEGFTVSPLLALSQHINEGALIITTLSLAILIYFDITKNKILKEIPAPILVVLAGILLNELFIWTNSSLAQNSPQLVNIPDTNGFFQFFSHLEYPDWSAWTNPKVYLYALVICIVASLETLLNLKASERLDKKRRHSPTNQELVAQGLGNITSGLVGGIPVTSVIVRTSINIHAGSKTKFSAVLHGFFILFAVMLIPGALNKIPLSSLAAILIYTGYKLNKPAIYINIFSQGSDRFIPFIVTVISIIAFNLLAGILIGLAISLFYILKSNSQARIDIIKEIYPNGSTYRLMLPQQMTFLNKAALVAELDTLPRRSQLIIDARHSQYIDKEILDLFNELKEELAGSKQISVNFTGFQEHYKIHNYIDFITVTTYDVQTNLTPAQVLNILLEGNQRFLSDNRIHRSNQIDIKYTAKTQHPIAVVLACIDSRVPVETIFDMSFGDLFCVRIAGNVINDDILASIEYACNVVGAKLIMVLGHTRCGAIQSACDGIEKGHITQLLSKIKPAVNAEKETTTERNGKNQTFVNHVTELNVANTLQNIYKKSDILRTMIDSNEIGMVGAIYDVSSGKVSCKTYTEELSTLDGDENKLLAQKFETILLEAKAS”, “failed”.

Consider “MSSTSPNLQKAIDLASKAAQEDKAGNYEEALQLYQHAVQYFLHVVKYEAQGDKAKQSIRAKCTEYLDRAEKLKEYLKNKEKKAQKPVKEGQPSPADEKGNDSDG”, for which the protein production entry is given as “not failed”.

For the sequence “MALLLFFLFIALLGFGILKINNRSILGGITLASGTLLSLVTLLFIGLDKIYLHFKNGDLITLAIAYLLIPAVFIGICLYFIFNSRTMQTKEGKSVTAKLSAGLGLNLLIALPAFLYLLSVGTAQIPYVLFLFLLFLLLMDLLLTFLFAAYVLYSWMYQMIPLKKAVDYIIVLGSGIRSEEVPPLLKSRLDKGIEYYEKNPTAKFVVSGGQGPDEPVAEAFAMKKYLLSQNIPAEAILMEDQSTTTYENMLFSKAIIQADWQKMPSDSKQPSVIFSTNNYHVLRGAMYAHRVGLKAEGVGAPTALYFLPTALIREYIALLVHDKRIVLFVFLLVTLLLGISILPI”, the protein production result is given as “failed”. For the sequence “GLPRRAVTQLVEQPLVVVDFLAHITAQGGHAAVIGWKDLAYAGVIDSGGVCENIIAIPNPGTEPLNVAAVLCEGLDVVVYKGPEISLSPTRARPLLGKLRQGTAALVMVGTKVSSPALSVDAEITDYVGIGAGSGRIRGVEMQVRAVSKTHGVRSGKVLISRP”, the protein production result was “failed”. To “MSGADTKKKLVGRHKRVAFMDVAGDGKTYTRMTGFTSMSESKNASEYSRHYVDEESERTDVVGYAPSNDYEFDRYTNDLVQQKISEITDDELLGSDAQVSIVVVDLFDIKTDTPNTCVARKRDWSVVPDNSGDGTDALIYKGSLKANGEKIKGTATTTDNWQTCTFAAD” belongs “failed”. On to “AAGSENTNYFISLEQGEFVLTLVERGPVQEMPFFIELLDVLHDANLPVPYALRTTDGQALRELAGKPALLQPRLPGKHISEPNTQHCVQIGELLANLHLATREQVLERKTDRGLDWMLSEGRNFLSHLGETQRALLEKSLQEIEDLKPQIMALPRANLHADLFRDNVLFEGTHLTGLIDFYNACSGPMLYDLAIALNDWCSRENG”, for which the protein production entry is on record as “failed”. On to “DIENSPIKDDNSIIEIFSYGCHYCAINEDNVSQLENRMPEGTRFIRLHISSDKTTGLGRFAPVFATLSVMGIEPQHRQSAYKAVLDDNSDLSDNRQLETWLKANDIDVAKYQQVSQSAEVKALISYMTAVTAHYKIDATPTFIVGKKWIALQDREFPAFSDHLLSLLEHD”, for which the protein production result is “failed”.

With “VPPPGTMVMVERKVGSWVDGQPIDLQRDWRSWEQLPDSLKVAVIAGEDQHFAEHHGFDLPAIQQALAHNERGGSIRGASTLSQQVAKNVFLWSGRSWLRKGLEAWFTLLIETLWTKQRILEVYLNSAEWGPGVFGAQAAARYHFGLDAERLSRTQASQLAAVLPSPLKWSAARPGPYVRQRAAWIRQQMWQLGGDDYLLRLER”, the protein production entry is “failed”.

Regarding “MTQDGTNILILGSDQRVTQGSTDARTDTIMVVNVGNHAKKIKMVSFMRDTLINIPGYSYNDNSYDLKLNSAFNLGEQEDHHGAEYVRRALKHNFDIDIKYYVMVDFETFAEAIDTLFPNGVKIDAKFATVGGVAVDSVEVPDDLRMKNGVVPNQTIEVGEQRMDGRTLLNYARFRKDDEGDFGRTVRQQQVMSAVMSQIKDPTKLFTGSAAIGKIYALTSTNVSFPFVVKNGVSVLGSGKNGVEHVTIPENGDWVDEYDMYGGQALYIDFDKYQKTLAKLGLRLEHHHHHH”, the protein production entry is listed as “not failed”. To “MRRHRLSGQITLSMSVVVAIAVLMVFVGTFIFYSIYMTWFPPPPGPPPLLPEAPDFILIAIFLLLGLAIAIHAALRLTRRILAPLNSLAEGARKIAAGDLTARAVAGDRSLGETAQLVDDFNAMARRLEDAAESMTSWNAAIAHELRTPLTILRGRLQGLTDGVFEPSDELFRSLLVQVENLSRLVDDLRVVTLSDSQRLDMRVEPTDLANEVAQAVDAMRPALEGAGFSIRMTTEPVTLPCDGPRIRQALLALLENARRYATPGMIVIRMTLETFEVAIAVEDEGPGLSAEFAARAFDAFVRAEPSRSRQFGGSGLGLSVVRAIAEAHGGHARYSTSEKGGSVFEIVFPIDGASADSNAASCAPKV” belongs “failed”. With “MRLLSSPINRGFFDYVELYPSLVSSYFPPPDRPSAVLSVGETRYVNSVKQTASLDSLNDYEEQFPPLTGGSKTKKFYLGSTNPSTPCQSSQLQNWTSGKDALSLQRNLGCKNRRRRRASRFLHEESNGTTFEVGAGIGSPTSMVHFDSTNPSSSSKSSQSQNLKIRKVRNHRNSGFKSRDQSPQRIKDPPPFDICSSVLERNDTSIKDWILADETNRETVEVSNKHKVIRPGMVLLKDFLTPDIQVDIVKTCRELGVKPTGFYQPGYSVGSKLHLQMMCLGRNWDPQTKYRKNTDIDSKAPEIPVTFNVLVEKAIREAHALIDRESGTEDAERILPVMSPDICIVNFYSETGRLGLHQDRDESEESIARGLPIVSFSIGDSAEFLYGEKRDVEEAQGVILESGDVLIFGGESRMIFHGVKSIIPNSAPMSLLNESKLRTGRLNLTFRHF” the entry was “failed”. With “MSDIQVRHVEADKQFVIAVDGEDAGFAGYAERDGHRNFNHTVIDPRFRGQGLSQPLIQQALEATHADGLGVIATCSAVVGFVQKNPEFRDYLA” the entry was “failed”.
